Tests used:
[1] = test system: C. difficile 630Δerm biofilm; test: DNase, RNase and proteinase K digests of biofilm (floc) in liquid culture
[2] = test system: C. difficile R20291 biofilm; test: DNase, RNase and proteinase K digests of biofilm in liquid culture; settings: 15 minutes at the concentrations indicated (FIG. 8)
[3] = test system: C. difficile strain 630Δerm; test: Inhibition of biofilm formation in TC flasks; settings: 10 mg/ml in the growth media; incubated statically for six days (FIG. 9)
[4] = 1 mg/ml, 15 minute treatment, room temperature

Molecule	Degradation of the biofilm (floc produced in static culture) ([1]; 100 ug/ml, 15 minute treatment, room temperature)	Degradation of the biofilm (floc produced in static culture) [1, 4]	Degradation of the biofilm [2]	Degradation of the biofilm (floc produced in static culture) ([1]; concentration increased to 2 mg/ml proteinase K (data not shown))	Degradation of the biofilm (floc produced in static culture) ([1]; incubation time increased to 24 hours (data not shown))	Formation of biofilm in liquid media [3]
RNase: RNaseA enzyme used to digest biofilm constituents (protein, UniProt P61823 27-150, looked up) Ribonuclease pancreatic: KETAAAKFERQHMDSSTSAASSSNYCNQMMKSRNLTKDRCKPVNTFVHESLADVQAVCSQKNVACKNGQTNCYQSYSTMSITDCRETGSSKYPNCAYKTTQANKHIIVACEGNPYVPVHFDASV	did not disrupt the biofilm	did not disrupt the biofilm	only degraded by DNase treatment			
proteinase K: a proteinase used to digest biofilm constituents (protein, UniProt P06873 106-384, looked up) Proteinase K: AAQTNAPWGLARISSTSPGTSTYYYDESAGQGSCVYVIDTGIEASHPEFEGRAQMVKTYYYSSRDGNGHGTHCAGTVGSRTYGVAKKTQLFGVKVLDDNGSGQYSTIIAGMDFVASDKNNRNCPKGVVASLSLGGGYSSSVNSAAARLQSSGVMVAVAAGNNNADARNYSPASEPSVCTVGASDRYDRRSSFSNYGSVLDIFGPGTSILSTWIGGSTRSISGTSMATPHVAGLAAYLMTLGKTTAASACRYIADTANKGDLSNIPFGTVNLLAYNNYQA		partial degradation with proteinase K was not observed	only degraded by DNase treatment	partial degradation	partial degradation	decreases biofilm formation

From patent US10039812B2, “Therapeutic for treating clostridium difficile infection” (priority 2012, dated 2018)
